Measurements as given in publication PMC11199634.

Legend:
LgBiT-PP1α = LgBiT-PP1α (UniProt P62136); assay: lysate-based split-luciferase complementation; conditions: mixed HEK293T lysates; signals normalized for the same expression level; n = 3; parent: est. 100; read off a plot
[1] = biological target: SDS22-KR7A (purified) (human) (UniProt Q15435); assay: ITC; 5 μM SDS22 in the cell titrated with 50 μM His-I3 (20 injections), 22 °C, MicroCal iTC200; binding curves not saturated
EGFP-I3-DE4A (human) = EGFP-I3-DE4A (human) (UniProt O60927); assay: co-IP; EGFP-trap (anti-EGFP nanobodies on agarose, 2 h, 4 °C) of transiently expressed EGFP fusions from HEK293T lysates (20 mM Tris pH 7.9, 0.3 M NaCl, 0.5% Triton X-100); endogenous partners by immunoblot
EGFP-I3-DE4A (human), sequence (O60927 whole entry, the tested form may be a part): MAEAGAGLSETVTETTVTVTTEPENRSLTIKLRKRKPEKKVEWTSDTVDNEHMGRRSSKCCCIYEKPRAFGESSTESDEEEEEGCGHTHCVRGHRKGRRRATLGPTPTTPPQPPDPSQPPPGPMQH

LgBiT-PP1α, sequence (P62136 whole entry): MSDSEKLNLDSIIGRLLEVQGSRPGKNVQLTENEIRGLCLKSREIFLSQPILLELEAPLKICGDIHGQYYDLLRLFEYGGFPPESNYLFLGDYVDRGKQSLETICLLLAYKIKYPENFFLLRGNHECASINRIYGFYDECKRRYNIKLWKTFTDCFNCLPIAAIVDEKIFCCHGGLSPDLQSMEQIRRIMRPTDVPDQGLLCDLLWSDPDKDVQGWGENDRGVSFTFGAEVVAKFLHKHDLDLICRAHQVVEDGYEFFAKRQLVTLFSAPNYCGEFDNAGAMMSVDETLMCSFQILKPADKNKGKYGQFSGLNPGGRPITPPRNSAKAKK
RM-SmBiT, sequence (Q69YH5 whole entry, change not shown): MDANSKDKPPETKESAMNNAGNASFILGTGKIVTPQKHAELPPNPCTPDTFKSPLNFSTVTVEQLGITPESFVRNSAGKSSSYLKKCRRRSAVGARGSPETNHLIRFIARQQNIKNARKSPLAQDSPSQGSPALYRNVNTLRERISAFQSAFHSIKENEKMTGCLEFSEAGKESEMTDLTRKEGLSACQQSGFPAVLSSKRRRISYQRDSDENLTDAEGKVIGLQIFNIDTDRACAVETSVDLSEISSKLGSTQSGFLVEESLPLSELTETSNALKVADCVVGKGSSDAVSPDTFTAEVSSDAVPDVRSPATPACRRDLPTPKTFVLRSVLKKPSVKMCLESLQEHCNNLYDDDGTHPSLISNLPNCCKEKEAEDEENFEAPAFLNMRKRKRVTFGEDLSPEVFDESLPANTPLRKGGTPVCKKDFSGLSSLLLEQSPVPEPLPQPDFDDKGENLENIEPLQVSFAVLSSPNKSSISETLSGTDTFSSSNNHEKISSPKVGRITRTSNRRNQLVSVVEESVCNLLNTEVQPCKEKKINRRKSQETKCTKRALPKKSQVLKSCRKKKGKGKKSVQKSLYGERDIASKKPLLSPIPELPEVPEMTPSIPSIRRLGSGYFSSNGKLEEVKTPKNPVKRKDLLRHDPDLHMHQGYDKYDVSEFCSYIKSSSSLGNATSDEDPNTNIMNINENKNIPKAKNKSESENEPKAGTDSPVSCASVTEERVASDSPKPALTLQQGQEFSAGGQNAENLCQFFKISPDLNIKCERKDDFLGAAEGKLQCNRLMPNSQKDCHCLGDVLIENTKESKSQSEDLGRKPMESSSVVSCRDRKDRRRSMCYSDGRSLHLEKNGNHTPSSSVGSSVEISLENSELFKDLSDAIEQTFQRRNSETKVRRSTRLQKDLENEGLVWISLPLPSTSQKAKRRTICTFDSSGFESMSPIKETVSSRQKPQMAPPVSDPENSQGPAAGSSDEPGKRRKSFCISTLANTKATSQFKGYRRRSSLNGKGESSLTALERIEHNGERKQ
His-I3, sequence (O60927 whole entry): as the sequence (O60927 whole entry, the tested form may be a part) above
I3^WT-SmBiT, sequence (O60927 whole entry, change not shown): as the sequence (O60927 whole entry, the tested form may be a part) above
PP1 (endogenous, HEK293T), sequence (P62136 whole entry): as the sequence (P62136 whole entry) above
SDS22-KR7A (purified) (human), sequence (Q15435 whole entry, the tested form may be a part): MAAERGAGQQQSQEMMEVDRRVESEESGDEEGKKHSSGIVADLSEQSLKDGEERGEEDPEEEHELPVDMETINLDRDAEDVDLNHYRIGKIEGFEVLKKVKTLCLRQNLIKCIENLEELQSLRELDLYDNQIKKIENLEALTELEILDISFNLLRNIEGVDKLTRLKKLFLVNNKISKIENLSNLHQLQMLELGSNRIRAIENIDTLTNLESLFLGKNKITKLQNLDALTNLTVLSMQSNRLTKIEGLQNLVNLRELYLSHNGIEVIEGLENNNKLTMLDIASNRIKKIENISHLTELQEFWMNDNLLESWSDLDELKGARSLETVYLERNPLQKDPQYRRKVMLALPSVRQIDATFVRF
I2-SmBiT, sequence (P41236 whole entry, change not shown): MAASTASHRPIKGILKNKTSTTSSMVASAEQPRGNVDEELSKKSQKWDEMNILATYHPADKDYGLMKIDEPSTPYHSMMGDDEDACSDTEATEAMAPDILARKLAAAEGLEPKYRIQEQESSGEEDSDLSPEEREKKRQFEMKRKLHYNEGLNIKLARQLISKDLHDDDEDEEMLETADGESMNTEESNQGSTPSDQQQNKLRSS

| Substance | percent of parent (% of RIPPOs^WT-SmBiT) (LgBiT-PP1α) | further results |
| --- | --- | --- |
| I3^WT-SmBiT (from UniProt O60927) RATA | 6 |  |
| I2-SmBiT (from UniProt P41236) RATA | 32 |  |
| RM-SmBiT (from UniProt Q69YH5) RATA | 10 |  |
| His-I3 (from UniProt O60927 1-126) (natural protein) |  | Kd [1]: 128 µM |
| PP1 (endogenous, HEK293T) (from UniProt P62136 1-330) (enzyme) |  | percent decrease of binding against EGFP-I3-WT (EGFP-I3-DE4A (human)): 35% |
